{"source": "patent US8399213B2", "about": "“Method for monitoring intracellular tyrosine phosphatase activity” (University of Southern California, priority 2008, dated 2013)", "molecules": {"B1": {"name": "PTPN22 (protein)", "chain": "MDQREILQKFLDEAQSKKITKEEFANEFLKLKRQSTKYKADKTYPTTVAEKPKNIKKNRYKDILPYDYSRVELSLITSDEDSSYINANFIKGVYGPKAYIATQGPLSTTLLDFWRMIWEYSVLIIVMACMEYEMGKKKCERYWAEPGEMQLEFGPFSVSCEAEKRKSDYIIRTLKVKFNSETRTIYQFHYKNWPDHDVPSSIDPILELIWDVRCYQEDDSVPICIHCSAGCGRTGVICAIDYTWMLLKDGIIPENFSVFSLIREMRTQRPSLVQTQEQYELVYNAVLELFKRQM"}}, "key": {"[1]": {"test_system": "intracellular PTPs in JTAg cells", "assay": "Intracellular dephosphorylation of nucleofected pCAP peptide, flow cytometry", "type": "cell-based, human", "settings": "preincubated with 10 mM vanadate; 100 μM 9LckpCAP394 peptide; 1′ after nucleofection", "protocol": "FIG. 3. Dephosphorylation of pCAP peptide by intracellular PTPs after nucleofection. (A) Time-course of intracellular dephosphorylation of nucleofected 9Lck394 CAP-based peptides. JTAg human T cells were nucleofected in the presence of 100 μM pCAP peptide (blue lines), 100 μM CAP peptide (red lines) or 100 μM of a non-hydrolyzable Et2pCAP peptide (green lines). Cell fluorescence was measured using a BD LSR-II with a DAPI filter at 30″ (dotted lines) and 1′ (continuous lines). […] (B) Fluorescence of non-nucleofected JTAg cells incubated in the presence of the CAP-based peptides used for the experiment in panel (A). Graphs show fluorescence of non-nucleofected cells incubated with 100 μM pCAP peptide (dashed blue line), 100 μM CAP peptide (dashed red line) or 100 μM of a non-hydrolyzable Et2pCAP peptide (dashed green line). Data from panel (A) and (B) are representative of the same experiment. […] JTAg cells were nucleofected in the presence of 100 μM 9LckpCAP394 peptide and cell fluorescence was measured at 1′ (pink line), 2.5′ (purple line), 5′ (light blue line), and 10′ (dark blue line). […]\nFIG. 4. […] Dashed red and blue lines show fluorescence of non-nucleofected cells incubated with pCAP peptide (blue dashed line) or CAP peptide (red dashed line), and vanadate.\nFIG. 5. […] The fluorescence of cells was assessed at 1′ (black lines) or 15′ (yellow lines) after fixation. […]"}, "Jurkat TAg (JTAg) cells": {"test_system": "Jurkat TAg (JTAg) cells", "assay": "Cellular uptake of cell-permeable CAP peptides, flow cytometry", "type": "cell-based", "settings": "JTAg T cells treated with lipid-R7 peptides", "protocol": "FIG. 6. […] Cells were incubated for 1 hour with RPMI with 0.5% FBS with DMSO alone or containing 12.5 μM of Ant-CAP or R8-CAP. The fluorescence (Y axis) versus forward scatter (X axis) of 10,000 cells gated as live T cells on the forward versus side scatter plot is shown. The percentage (%) of positive (showing fluorescence over the control level) cells is shown in each panel.\nThe inventors have shown that pCAP peptides are dephosphorylated by PTPs, but are not recognized by serine/threonine phosphatases, which makes them particularly suitable as probes to detect intracellular PTP activity (FIG. 1). […] The amount of enzyme used was normalized to be the same activity on DiFMUP. […] To determine if these peptides are suitable substrates for cell-based screening of PTP inhibitors, the inventors further assessed dephosphorylation in microinjected cells. Using fluorescence microscopy, intracellular dephosphorylation of the microinjected peptides was observed as recognized by an increase in fluorescence over time and was inhibited by a known PTP inhibitor (FIG. 2). […] Human Jurkat TAg (JTAg) cells with CAP-ANT and CAP-R8 peptides were incubated and analyzed by flow cytometry. […]\nCells are added to wells of a plate at a concentration of up to 10 million/mL. […] Cells can be analyzed with any flow cytometry system equipped with appropriate excitation and emission filters."}, "T cell PTP (TCPTP)": {"target": "T1, T cell PTP (TCPTP) (Homo sapiens, UniProt P17706)", "T1 sequence (P17706 1-415)": "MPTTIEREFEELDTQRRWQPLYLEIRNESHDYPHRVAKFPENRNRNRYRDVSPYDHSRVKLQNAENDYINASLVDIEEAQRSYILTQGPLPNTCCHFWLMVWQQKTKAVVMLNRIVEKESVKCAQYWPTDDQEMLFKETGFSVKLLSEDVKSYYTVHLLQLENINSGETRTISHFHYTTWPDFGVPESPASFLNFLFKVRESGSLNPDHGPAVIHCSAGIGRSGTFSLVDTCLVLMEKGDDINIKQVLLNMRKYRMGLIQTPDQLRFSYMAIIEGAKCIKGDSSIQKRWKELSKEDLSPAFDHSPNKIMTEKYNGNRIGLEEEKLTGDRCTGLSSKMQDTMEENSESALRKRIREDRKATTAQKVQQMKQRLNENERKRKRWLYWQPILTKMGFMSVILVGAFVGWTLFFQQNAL", "settings": "cited from earlier work"}, "YOP": {"target": "YOP (Yersinia enterocolitica, UniProt P15273)", "sequence (P15273 whole entry)": "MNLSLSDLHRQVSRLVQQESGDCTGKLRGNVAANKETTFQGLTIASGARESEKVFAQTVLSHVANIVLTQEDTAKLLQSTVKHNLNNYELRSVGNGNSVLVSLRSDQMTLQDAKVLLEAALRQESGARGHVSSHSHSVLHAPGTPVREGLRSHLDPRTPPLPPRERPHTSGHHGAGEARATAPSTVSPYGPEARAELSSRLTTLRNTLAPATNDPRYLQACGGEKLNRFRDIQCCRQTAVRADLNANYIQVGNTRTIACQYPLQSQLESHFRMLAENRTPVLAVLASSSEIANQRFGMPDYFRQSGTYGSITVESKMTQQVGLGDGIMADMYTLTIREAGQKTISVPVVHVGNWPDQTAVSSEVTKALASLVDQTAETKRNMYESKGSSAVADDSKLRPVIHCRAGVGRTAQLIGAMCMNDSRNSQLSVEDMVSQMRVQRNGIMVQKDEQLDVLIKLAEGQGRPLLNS", "settings": "excitation at 340 nm and emission at 460 nm; cited from earlier work"}, "[2]": {"test_system": "serine-threonine phosphatases (PP1, PP2A, PP2B)", "assay": "Dephosphorylation of pCAP peptide by serine-threonine phosphatases, plate reader time-course", "type": "biochemical", "settings": "0.2 mM peptide; optimal buffer for each enzyme; enzyme amount normalized to same activity on DiFMUP", "protocol": "(§1) (A) Structure of CAP, pCAP, and Et2-pCAP, a non-hydrolyzable form of pCAP. (B) Kinetic parameters of dephosphorylation of 9LckpCAP394 peptide by PTPN22. (C) Time-course of dephosphorylation of 0.2 mM 9LckpCAP394 peptide by PP1 (filled triangles), PP2A (open squares), or PP2B (filled squares). Linear regression is also shown. The activity of the enzymes was normalized using difluoromethylumbelliferone phosphate (DiFMUP) as substrate and equal units were used for all the assays on pCAP peptide. Open diamonds and dashed line show representative activity of all enzymes on 0.2 mM DiFMUP.\n(§2) The amount of enzyme used was normalized to be the same activity on DiFMUP. […] To determine if these peptides are suitable substrates for cell-based screening of PTP inhibitors, the inventors further assessed dephosphorylation in microinjected cells. […] In principle, any FACS system equipped with the appropriate excitation and emission filters could be used. […] Human Jurkat TAg (JTAg) cells with CAP-ANT and CAP-R8 peptides were incubated and analyzed by flow cytometry."}, "PTPN22": {"target": "T2, PTPN22 (Homo sapiens, UniProt Q9Y2R2)", "T2 sequence (Q9Y2R2 1-807)": "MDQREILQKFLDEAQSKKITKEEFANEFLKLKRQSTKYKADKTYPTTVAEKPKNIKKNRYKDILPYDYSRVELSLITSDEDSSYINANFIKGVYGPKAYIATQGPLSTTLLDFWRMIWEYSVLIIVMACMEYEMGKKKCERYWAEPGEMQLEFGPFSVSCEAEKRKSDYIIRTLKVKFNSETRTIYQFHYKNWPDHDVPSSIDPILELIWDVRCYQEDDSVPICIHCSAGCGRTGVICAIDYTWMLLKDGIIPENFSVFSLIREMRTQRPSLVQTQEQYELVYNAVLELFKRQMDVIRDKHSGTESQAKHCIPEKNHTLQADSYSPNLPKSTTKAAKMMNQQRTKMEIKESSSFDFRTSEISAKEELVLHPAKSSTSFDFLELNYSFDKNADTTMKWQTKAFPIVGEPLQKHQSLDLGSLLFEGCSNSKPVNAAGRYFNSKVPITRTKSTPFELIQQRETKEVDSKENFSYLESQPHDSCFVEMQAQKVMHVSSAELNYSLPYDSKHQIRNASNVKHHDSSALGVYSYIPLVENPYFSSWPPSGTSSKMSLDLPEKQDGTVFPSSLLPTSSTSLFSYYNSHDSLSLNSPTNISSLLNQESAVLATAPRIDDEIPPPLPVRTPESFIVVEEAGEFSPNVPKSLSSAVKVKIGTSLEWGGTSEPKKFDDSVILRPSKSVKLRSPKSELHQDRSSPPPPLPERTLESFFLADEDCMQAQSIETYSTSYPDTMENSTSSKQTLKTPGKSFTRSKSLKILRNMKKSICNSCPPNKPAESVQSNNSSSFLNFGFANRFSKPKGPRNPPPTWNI", "assay": "Dephosphorylation of pCAP peptide by PTPN22", "type": "biochemical", "protocol": "as §1, §2"}, "[3]": {"test_system": "T3, 9LckpCAP394 peptide (EDNE-pCAP-TARE)", "T3 sequence": "EDNEXTARE"}, "[4]": {"target": "T4, 9LckpCAP394 peptide (EDNE-pCAP-TARE)", "T4 chain": "EDNEXTARE"}}, "note": "Square brackets hold non-standard residues; d marks the D form. Ends that are not written are not given here. Ala(7-OPO3H2-coumarin-4-yl) = N[C@@H](Cc1cc(=O)oc2cc(OP(=O)(O)O)ccc12)C(=O)O"}
{"molecule": "[O]=[V]([O-])([O-])[O-]", "note": "[Vanadate, vanadate]", "values": [{"measurement": "inhibition of dephosphorylation of pCAP peptide in nucleofected JTAg cells", "setting": "[1]", "result": "inhibits the dephosphorylation"}]}
{"molecule": "C14-betaAla-R7-CAP", "values": [{"measurement": "efficacy of internalization compared to non-lipidic tags", "setting": "Jurkat TAg (JTAg) cells", "result": "substantially increase efficacy of internalization"}]}
{"molecule": "C16-betaAla-R7-CAP", "values": [{"measurement": "efficacy of internalization compared to non-lipidic tags", "setting": "Jurkat TAg (JTAg) cells", "result": "substantially increase efficacy of internalization"}]}
{"molecule": "DADE-pCAP-GPAA-NH2 (DADEXGPAX; pCAP residue, C-terminal amide; artificial YOP substrate) [peptide 1]", "values": [{"measurement": "turnover by human PTPs including TCPTP", "setting": "T cell PTP (TCPTP)", "result": "efficiently turned over"}, {"measurement": "fluorescence change on dephosphorylation by YOP", "setting": "YOP", "result": "linear increase in fluorescence"}]}
{"molecule": "EDNE-pCAP-TARE (EDNE[Ala(7-OPO3H2-coumarin-4-yl)]TARE) [9Lck394p CAP, pCAP peptide, artificial PTPN22 substrate]", "values": [{"measurement": "hydrolysis by serine-threonine phosphatases", "setting": "[2]", "result": "ineffective at hydrolysis"}, {"measurement": "hydrolysis by PTPN22", "setting": "PTPN22", "result": "efficiently hydrolyzed"}]}
{"molecule": "PP1", "values": [{"measurement": "hydrolysis (dephosphorylation) of 0.2 mM pCAP peptide over time, fluorescence excitation 340 nm / emission 460 nm", "setting": "[3]", "result": "The serine-threonine phosphatases were ineffective at hydrolysis of this peptide"}]}
{"molecule": "PP2A", "values": [{"measurement": "hydrolysis (dephosphorylation) of 0.2 mM pCAP peptide over time, fluorescence excitation 340 nm / emission 460 nm", "setting": "[3]", "result": "The serine-threonine phosphatases were ineffective at hydrolysis of this peptide"}]}
{"molecule": "PP2B", "values": [{"measurement": "hydrolysis (dephosphorylation) of 0.2 mM pCAP peptide over time, fluorescence excitation 340 nm / emission 460 nm", "setting": "[3]", "result": "The serine-threonine phosphatases were ineffective at hydrolysis of this peptide"}]}
{"molecule": "B1", "values": [{"measurement": "hydrolysis (dephosphorylation) of pCAP peptide, fluorescence excitation 340 nm / emission 460 nm", "setting": "[4]", "result": "efficiently hydrolyzed by PTPN22"}]}
